The source of these data is patent US20240325557A1, “TREATMENT OF CANCER” (INNATE PHARMA, priority 2020, published 2024).

Residue numbers refer to the chain shown, from its start.

Test [1] deals with Rat Nectin-4 on CHO cells (rat). Briefly: flow cytometry titration on CHO cells expressing rat Nectin-4, median MFI (PE). A general note: A flow cytometer gives signals particle by particle.
Test [2] has as its target monomeric huNectin4-his-BirA protein (human) (UniProt Q96NY8). Briefly: SPR (Biacore T200), antibody captured on Protein A, monomeric huNectin4-his-BirA injected.

Broadly, the EC50 (read off the curve) is the midpoint of the concentration-response curve. Broadly, the Kd is the concentration at which binding is half-saturated. Higher therefore signals lower affinity. By koff is commonly meant the first-order rate constant of dissociation. Low readings indicate slow dissociation, high ones fast dissociation. Broadly, the kon is the rate constant with which the complex forms.

B1: antibody 5E7 (antibody, human IgG1, V domains shown)
VH: QVQLQQPGAELVKPGASVKLSCKASGYIFTSYWMHWVKQRPGQGLEWIGEIDPSDSYTNYNQKFKGKATLTLDKSSSTTYMQLSSLTSEDSAVYYCVRGYGNYGDYWGQGTTLTVSS
VL: DVVMTQAAFSNPVTLGTSASISCRSSKSLLHSNGITYLYWYLQKPGQSPQLLIYQMSNLASGVPDRFSSSGSGTDFTLRISRVEAEDVGVYYCAQNLELPWTFGGGTKLEIK
In the case of B1, the EC50 (read off the curve) in test [1] was found to be 0.1 µg/mL.

B2: antibody 10B12 (antibody, human IgG1, V domains shown)
VH: B1 VH with I28T, L72V, T79A
VL: B1 VL with V2I
For the molecule B2, the EC50 (read off the curve) in test [1] came out at 0.1 µg/mL.

B3: Enfortumab (ASG-22ME) (antibody, from a related filing, V domains shown)
VH: EVQLVESGGGLVQPGGSLRLSCAASGFTFSSYNMNWVRQAPGKGLEWVSYISSSSSTIYYADSVKGRFTISRDNAKNSLSLQMNSLRDEDTAVYYCARAYYYGMDVWGQGTTVTVSS
VL: DIQMTQSPSSVSASVGDRVTITCRASQGISGWLAWYQQKPGKAPKFLIYAASTLQSGVPSRFSGSGSGTDFTLTISSLQPEDFATYYCQQANSFPPTFGGGTKVEIKR
Turning to B3, in test [2], the Kd was 13.7 nM, the koff came out at 0.0047 s⁻¹ and the kon worked out at 340000 M⁻¹ s⁻¹.
